Target: SAMHD1(26-626) (human, UniProt Q9Y3Z3 26-626)
Assay: SEC

Sequence of SAMHD1(26-626) (Q9Y3Z3 26-626): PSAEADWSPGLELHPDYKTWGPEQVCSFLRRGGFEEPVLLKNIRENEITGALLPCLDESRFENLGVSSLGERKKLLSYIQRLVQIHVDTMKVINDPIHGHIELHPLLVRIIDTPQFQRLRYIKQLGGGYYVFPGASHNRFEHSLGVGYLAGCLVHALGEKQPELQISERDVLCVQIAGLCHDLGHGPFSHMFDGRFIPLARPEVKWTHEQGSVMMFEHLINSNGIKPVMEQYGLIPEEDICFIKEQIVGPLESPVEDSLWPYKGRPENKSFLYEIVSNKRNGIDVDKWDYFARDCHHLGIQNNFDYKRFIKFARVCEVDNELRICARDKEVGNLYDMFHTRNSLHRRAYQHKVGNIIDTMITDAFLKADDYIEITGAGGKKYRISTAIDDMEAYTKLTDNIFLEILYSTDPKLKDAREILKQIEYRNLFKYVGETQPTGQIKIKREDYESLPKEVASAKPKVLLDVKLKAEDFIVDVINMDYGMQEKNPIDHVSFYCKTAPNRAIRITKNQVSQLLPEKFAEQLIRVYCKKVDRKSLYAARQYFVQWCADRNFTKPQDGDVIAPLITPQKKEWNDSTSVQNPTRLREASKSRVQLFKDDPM

B1: Vpxsm/DCAF1-CtD (complex)
chain 1: MSDPRERIPPGNSGEETIGEAFDWLDRTVEEINRAAVNHLPRELIFQVWRRSWEYWHDEMGMSVSYTKYRYLCLIQKAMFMHCKKGCRCLGGEHGAGGWRPGPPPPPPPGLA
chain 2: not shown
B1: binds.
